From article PMC8965725

Biological target: NRP-1 expressed on GL261 cells (mouse (endogenous in GL261)) (UniProt P97333)

A cellular FITC fluorescence of GL261 cells incubated with FITC-labeled NPs, flow cytometry, normalized to cells without treatment (cellular internalization) of 42% was found for “RGE fusion protein nanoparticles (RGE peptide-linker-HFn) (designed binder)” in this work.
